Paper PMC5645086, “Analysis of the interaction of Plexin-B1 and Plexin-B2 with Rnd family proteins” (PLoS ONE, 2017)

T1: Rnd3-Y60A (GTP-binding domain, residues 16-200) (UniProt P61587 16-200, Y60A)
T1 construct: source: E. coli BL21 (DE3), purified in the same way as wild type Rnd3; not shown: His6, N-terminal, cleaved
T1 sequence (looked up): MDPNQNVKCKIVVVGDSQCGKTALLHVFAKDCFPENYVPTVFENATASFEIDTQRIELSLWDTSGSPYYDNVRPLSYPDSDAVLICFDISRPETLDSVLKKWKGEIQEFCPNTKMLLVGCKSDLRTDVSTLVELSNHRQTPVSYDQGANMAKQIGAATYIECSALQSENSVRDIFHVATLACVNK

T2: Rnd3-F124Y (GTP-binding domain, residues 16-200) (UniProt P61587 16-200, F124Y)
T2 construct: source: E. coli Rosetta 2 (DE3), purified in the same way as wild type Rnd3; not shown: His6, N-terminal, cleaved
T2 sequence (looked up): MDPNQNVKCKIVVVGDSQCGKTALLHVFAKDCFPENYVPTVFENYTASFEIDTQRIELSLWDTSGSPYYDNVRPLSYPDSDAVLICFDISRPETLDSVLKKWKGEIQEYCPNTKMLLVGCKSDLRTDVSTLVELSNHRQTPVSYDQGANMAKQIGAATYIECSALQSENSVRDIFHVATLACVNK

T3: Rnd3-N86R (GTP-binding domain, residues 16-200) (UniProt P61587 16-200, N86R)
T3 construct: source: E. coli BL21 (DE3), purified in the same way as wild type Rnd3; not shown: His6, N-terminal, cleaved
T3 sequence (looked up): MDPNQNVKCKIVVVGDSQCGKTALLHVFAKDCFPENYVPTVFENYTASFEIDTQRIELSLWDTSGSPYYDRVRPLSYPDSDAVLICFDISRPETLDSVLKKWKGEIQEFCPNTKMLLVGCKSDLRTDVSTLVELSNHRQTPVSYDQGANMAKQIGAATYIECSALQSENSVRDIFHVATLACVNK

T4: Rnd1 GTP-binding domain (residues 1-191) (UniProt Q92730 1-191)
T4 construct: source: E. coli Rosetta 2 (DE3), purified (Nickel-NTA, TEV cleavage; in some cases ion exchange or size exclusion chromatography); not shown: His6, N-terminal, cleaved
T4 sequence (looked up): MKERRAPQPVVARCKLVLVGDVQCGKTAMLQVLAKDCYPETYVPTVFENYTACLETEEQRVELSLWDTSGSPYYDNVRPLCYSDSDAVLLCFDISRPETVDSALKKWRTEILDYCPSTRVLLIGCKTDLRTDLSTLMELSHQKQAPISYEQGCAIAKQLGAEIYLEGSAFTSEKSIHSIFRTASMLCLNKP

T5: Rnd3 GTP-binding domain (residues 16-200), wild type (UniProt P61587 16-200)
T5 construct: source: E. coli BL21 (DE3), purified (Nickel-NTA, TEV cleavage; in some cases ion exchange or size exclusion chromatography); not shown: His6, N-terminal, cleaved
T5 sequence (looked up): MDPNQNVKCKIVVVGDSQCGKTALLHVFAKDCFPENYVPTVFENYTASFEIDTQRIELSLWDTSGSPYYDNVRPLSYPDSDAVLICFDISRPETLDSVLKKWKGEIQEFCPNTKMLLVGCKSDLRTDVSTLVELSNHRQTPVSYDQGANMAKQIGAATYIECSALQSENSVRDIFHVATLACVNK

T6: Rnd2 GTP-binding domain (residues 2-184) (UniProt P52198 2-184)
T6 construct: source: E. coli BL21 (DE3), purified (Nickel-NTA, TEV cleavage; in some cases ion exchange or size exclusion chromatography); not shown: His6, N-terminal, cleaved
T6 sequence (looked up): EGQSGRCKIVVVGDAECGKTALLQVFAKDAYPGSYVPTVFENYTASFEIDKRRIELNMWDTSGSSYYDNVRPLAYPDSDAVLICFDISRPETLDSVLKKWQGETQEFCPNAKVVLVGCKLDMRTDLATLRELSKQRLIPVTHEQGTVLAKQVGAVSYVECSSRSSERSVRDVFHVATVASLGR

T7: Rnd1 GTP-binding domain (residues 1-191) (UniProt Q92730 1-191)
T7 construct: Cloned into pETDuet-1; tag removed with TEV protease; source: E. coli Rosetta 2 (DE3), purified (Nickel-NTA chromatography, TEV cleavage; in some cases ion exchange or size exclusion chromatography); not shown: His6, N-terminal, cleaved
T7 sequence (looked up): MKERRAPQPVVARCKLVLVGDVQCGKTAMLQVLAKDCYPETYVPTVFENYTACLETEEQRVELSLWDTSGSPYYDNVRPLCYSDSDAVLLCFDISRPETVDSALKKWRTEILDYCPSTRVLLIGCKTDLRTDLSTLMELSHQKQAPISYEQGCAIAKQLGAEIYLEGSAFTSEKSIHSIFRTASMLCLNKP


Key:
[1] = target: Rnd2 (Homo sapiens) (UniProt P52198); settings: cited from earlier work
[2] = target: T1, Rnd3-Y60A (GTP-binding domain, residues …); assay: ITC; Plexin-B-RBD (400-600 uM, syringe) titrated into Rnd protein (40-60 uM, cell); 25°C; buffer 2: 50 mM sodium phosphate pH 7.0, 150 mM NaCl, 4 mM MgCl2, 3 mM DTT; independent binding sites model; settings: both partners purified
[3] = target: T2, Rnd3-F124Y (GTP-binding domain, …); assay: as above; settings: both partners purified
[4] = target: T3, Rnd3-N86R (GTP-binding domain, residues …); assay: as above; settings: both partners purified
[5] = target: the molecule itself; assay: ITC; control dilution: Plexin-B1-RBD titrated into buffer alone, same conditions as the binding titrations; dimer to monomers
[6] = target: T4, Rnd1 GTP-binding domain (residues 1-191); assay: ITC; Plexin-B-RBD (400-600 uM, syringe) titrated into Rnd protein (40-60 uM, cell); 25°C; buffer 2: 50 mM sodium phosphate pH 7.0, 150 mM NaCl, 4 mM MgCl2, 3 mM DTT; independent binding sites model; settings: both partners purified
[7] = target: T5, Rnd3 GTP-binding domain (residues …); assay: as above; settings: both partners purified
[8] = target: T6, Rnd2 GTP-binding domain (residues 2-184); assay: as above; settings: both partners purified
[9] = target: T7, Rnd1 GTP-binding domain (residues 1-191); assay: ITC; Plexin-B1-RBD in the syringe titrated into Rnd1 in the cell; low salt buffer 1: 50 mM sodium phosphate pH 7.0, 50 mM NaCl, 4 mM MgCl2, 3 mM DTT, 25°C; independent binding sites model; mean and SD of 5 fitted binding curves; settings: both partners purified

Chain of Rnd2 (Homo sapiens) (P52198 1-224): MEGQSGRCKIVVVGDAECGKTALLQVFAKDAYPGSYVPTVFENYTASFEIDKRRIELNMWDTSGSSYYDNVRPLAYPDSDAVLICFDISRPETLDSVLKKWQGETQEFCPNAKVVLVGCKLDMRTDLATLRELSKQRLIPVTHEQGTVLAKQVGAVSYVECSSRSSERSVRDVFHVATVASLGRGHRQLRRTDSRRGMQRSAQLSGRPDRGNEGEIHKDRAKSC
Chain of Plexin-B1 RBD (O43157 1743-1862): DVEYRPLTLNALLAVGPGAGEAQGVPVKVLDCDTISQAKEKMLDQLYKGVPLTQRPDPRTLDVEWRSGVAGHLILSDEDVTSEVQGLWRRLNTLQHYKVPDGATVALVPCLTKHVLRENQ

| Molecule | Kd [2] | dH [2] | stoichiometry N [2] | Kd [3] | dH [3] | stoichiometry N [3] | Kd [4] | dH [4] | stoichiometry N [4] | Kd [6] | dH [6] | stoichiometry N [6] | Kd [7] | dH [7] | stoichiometry N [7] | Kd [8] | dH [8] | stoichiometry N [8] | further results |
| --- | --- | --- | --- | --- | --- | --- | --- | --- | --- | --- | --- | --- | --- | --- | --- | --- | --- | --- | --- |
| Plexin-B1 RBD (from UniProt O43157) |  |  |  |  |  |  |  |  |  |  |  |  |  |  |  |  |  |  | Kd [1]: > 20 µM |
| Plexin-B1-RBD (Rho-binding domain of Plexin-B1, residues 1746-1851), histidine-tagged (domain or fragment, UniProt O43157 1746-1851, looked up, A TEV protease site lies between the hexahistidine tag and the domain; Vector pETDuet-1; also called HisPlexin-B1; Plexin-B-RBD; source: E. coli BL21 (DE3), purified (Nickel-NTA; in some cases ion exchange or size exclusion chromatography); not shown: His6, N-terminal, kept) YRPLTLNALLAVGPGAGEAQGVPVKVLDCDTISQAKEKMLDQLYKGVPLTQRPDPRTLDVEWRSGVAGHLILSDEDVTSEVQGLWRRLNTLQHYKVPDGATVALVP | 7.26 µM | -2.76 kcal/mol | 1.02 | 4.6 µM | -8.65 kcal/mol | 1.04 | 8.12 µM | -5.53 kcal/mol | 0.91 | 2.37 µM | -15.6 kcal/mol | 0.85 | 6.62 µM | -9.73 kcal/mol | 1.07 | 7.64 µM | -7.33 kcal/mol | 1.16 | binding result [5]: binds |
| Plexin-B1-RBD (Rho-binding domain of Plexin-B1, residues 1746-1851), histidine-tagged (domain or fragment, UniProt O43157 1746-1851, looked up, A TEV protease cleavage site lies between the hexahistidine tag and the domain; removal of the tag was inefficient for Plexin-B1-RBD, so the tag was kept; Cloned into pETDuet-1; also called HisPlexin-B1; source: E. coli BL21 (DE3), purified (Nickel-NTA chromatography; in some cases ion exchange or size exclusion chromatography); not shown: His6, N-terminal, kept) YRPLTLNALLAVGPGAGEAQGVPVKVLDCDTISQAKEKMLDQLYKGVPLTQRPDPRTLDVEWRSGVAGHLILSDEDVTSEVQGLWRRLNTLQHYKVPDGATVALVP |  |  |  |  |  |  |  |  |  |  |  |  |  |  |  |  |  |  | Kd [9]: 5.37 µM; stoichiometry N [9]: 0.94 |
| Plexin-B2-RBD (Rho-binding domain of Plexin-B2, residues 1452-1562) (domain or fragment, UniProt O15031 1452-1562, looked up, Vector pETDuet-1; tag removed with TEV protease; source: E. coli BL21 (DE3), purified (Nickel-NTA, TEV cleavage; in some cases ion exchange or size exclusion chromatography); not shown: His6, N-terminal, cleaved) GLLGDDVEYAPLTVSVIVQDEGVDAIPVKVLNCDTISQVKEKIIDQVYRGQPCSCWPRPDSVVLEWRPGSTAQILSDLDLTSQREGRWKRVNTLMHYNVRDGATLILSKVG | 3.06 µM | -5.64 kcal/mol | 1.06 | 2.97 µM | -7.73 kcal/mol | 1.14 | 3.86 µM | -7.37 kcal/mol | 1.13 | 11.1 µM | -6.67 kcal/mol | 1.05 | 3.01 µM | -9.33 kcal/mol | 1.23 | 4.93 µM | -4.29 kcal/mol | 1.15 |  |
